In the supplement of paper PMC9112550, “Optimization of the antimicrobial peptide Bac7 by deep mutational scanning” (BMC Biology, 2022):

Tested on: Escherichia coli TOP10
Assay: shrunken log2 fold change of peptide-encoding DNA abundance (4.5 h post-induction vs induction); higher = less antimicrobial activity (less host growth inhibition)
Conditions: time post-induction: 4.5 h; library: site-saturation at positions 5, 18, 19, 20
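Also: peptides expressed intracellularly from a pBAD plasmid library in pooled LB shake-flask culture, induced with 0.3% L-arabinose, DNA abundance read by NGS, three biological replicates, DESeq2 with apeglm shrinkage.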

RRIRARPPRLPRPRPRPFPIPRP
shrunken log2 fold change: 0.264

RRIRTRPPRLPRPRPRPPKTPRP
shrunken log2 fold change: 0.142

RRIRVRPPRLPRPRPRPNWAPRP
shrunken log2 fold change: -0.0443

RRIRHRPPRLPRPRPRPQTTPRP
shrunken log2 fold change: -0.0121

RRIRFRPPRLPRPRPRPVGWPRP
shrunken log2 fold change: 0.62

RRIRARPPRLPRPRPRPWQSPRP
shrunken log2 fold change: 0.183

RRIRKRPPRLPRPRPRPIPYPRP
shrunken log2 fold change: -0.303

RRIRQRPPRLPRPRPRPNISPRP
shrunken log2 fold change: -0.565

RRIRMRPPRLPRPRPRPGDCPRP
shrunken log2 fold change: 0.548

RRIRTRPPRLPRPRPRPWTKPRP
shrunken log2 fold change: -0.00433

RRIRKRPPRLPRPRPRPGCDPRP
shrunken log2 fold change: 0.826

RRIRMRPPRLPRPRPRPCIWPRP
shrunken log2 fold change: 0.0563

RRIRNRPPRLPRPRPRPCLMPRP
shrunken log2 fold change: -0.299

RRIRKRPPRLPRPRPRPWHDPRP
shrunken log2 fold change: -0.406

RRIRFRPPRLPRPRPRPVQAPRP
shrunken log2 fold change: 0.183

RRIRDRPPRLPRPRPRPHGYPRP
shrunken log2 fold change: 0.0237

RRIRNRPPRLPRPRPRPCKWPRP
shrunken log2 fold change: -0.339

RRIRVRPPRLPRPRPRPPSEPRP
shrunken log2 fold change: -0.124

RRIRLRPPRLPRPRPRPPGTPRP
shrunken log2 fold change: 0.448

RRIRERPPRLPRPRPRPQTSPRP
shrunken log2 fold change: -0.37

RRIRFRPPRLPRPRPRPSQHPRP
shrunken log2 fold change: -0.612

RRIRFRPPRLPRPRPRPDPVPRP
shrunken log2 fold change: 0.227

RRIRWRPPRLPRPRPRPKFAPRP
shrunken log2 fold change: 0.453

RRIRRRPPRLPRPRPRPGQMPRP
shrunken log2 fold change: 0.0545

RRIRQRPPRLPRPRPRPFEIPRP
shrunken log2 fold change: 0.0112

RRIRIRPPRLPRPRPRPWNTPRP
shrunken log2 fold change: -0.256

RRIRKRPPRLPRPRPRPLVKPRP
shrunken log2 fold change: 0.195

RRIRNRPPRLPRPRPRPELRPRP
shrunken log2 fold change: 0.0572

RRIRNRPPRLPRPRPRPAKPPRP
shrunken log2 fold change: -0.00229

RRIRARPPRLPRPRPRPGKYPRP
shrunken log2 fold change: -0.152

RRIRYRPPRLPRPRPRPSGNPRP
shrunken log2 fold change: -0.067

RRIRQRPPRLPRPRPRPDREPRP
shrunken log2 fold change: 0.00931

RRIRKRPPRLPRPRPRPIMPPRP
shrunken log2 fold change: 0.099

RRIRFRPPRLPRPRPRPYENPRP
shrunken log2 fold change: -0.463

RRIRQRPPRLPRPRPRPEGFPRP
shrunken log2 fold change: -0.0494

RRIRARPPRLPRPRPRPMHIPRP
shrunken log2 fold change: -0.132

RRIRHRPPRLPRPRPRPIAFPRP
shrunken log2 fold change: -0.362

RRIRNRPPRLPRPRPRPGCLPRP
shrunken log2 fold change: -0.000466

RRIRCRPPRLPRPRPRPHAMPRP
shrunken log2 fold change: -0.145

RRIRPRPPRLPRPRPRPTTLPRP
shrunken log2 fold change: -0.0741

RRIRDRPPRLPRPRPRPDMKPRP
shrunken log2 fold change: -0.00136

RRIRKRPPRLPRPRPRPETSPRP
shrunken log2 fold change: 1.02

RRIRFRPPRLPRPRPRPILDPRP
shrunken log2 fold change: -0.0134

RRIRYRPPRLPRPRPRPLHVPRP
shrunken log2 fold change: -0.21

RRIRPRPPRLPRPRPRPYAVPRP
shrunken log2 fold change: -0.712

RRIRQRPPRLPRPRPRPLNCPRP
shrunken log2 fold change: -0.0264

RRIRPRPPRLPRPRPRPQHVPRP
shrunken log2 fold change: 0.00743

RRIRERPPRLPRPRPRPYWWPRP
shrunken log2 fold change: -0.142

RRIRSRPPRLPRPRPRPLKRPRP
shrunken log2 fold change: 0.026

RRIRKRPPRLPRPRPRPQNYPRP
shrunken log2 fold change: -0.196

RRIRFRPPRLPRPRPRPMCLPRP
shrunken log2 fold change: -0.564

RRIRCRPPRLPRPRPRPKVYPRP
shrunken log2 fold change: -0.167

RRIRFRPPRLPRPRPRPFRLPRP
shrunken log2 fold change: -0.197

RRIRPRPPRLPRPRPRPGENPRP
shrunken log2 fold change: 0.184

RRIRHRPPRLPRPRPRPILSPRP
shrunken log2 fold change: -0.0163

RRIRMRPPRLPRPRPRPCGHPRP
shrunken log2 fold change: 0.0237

RRIRTRPPRLPRPRPRPKLGPRP
shrunken log2 fold change: 0.106

RRIRRRPPRLPRPRPRPDMVPRP
shrunken log2 fold change: 0.206

RRIRGRPPRLPRPRPRPLQKPRP
shrunken log2 fold change: 1.28

RRIRYRPPRLPRPRPRPMKAPRP
shrunken log2 fold change: -0.000687

RRIRYRPPRLPRPRPRPHSYPRP
shrunken log2 fold change: -0.188

RRIRHRPPRLPRPRPRPHWHPRP
shrunken log2 fold change: -0.25

RRIRYRPPRLPRPRPRPIWMPRP
shrunken log2 fold change: -0.0399

RRIRHRPPRLPRPRPRPGFLPRP
shrunken log2 fold change: -0.0294

RRIRYRPPRLPRPRPRPPFAPRP
shrunken log2 fold change: 0.0915

RRIRLRPPRLPRPRPRPGVHPRP
shrunken log2 fold change: -0.308

RRIRGRPPRLPRPRPRPRSVPRP
shrunken log2 fold change: 0.662

RRIRERPPRLPRPRPRPQVMPRP
shrunken log2 fold change: -0.303

RRIRKRPPRLPRPRPRPADPPRP
shrunken log2 fold change: -0.0715

RRIRCRPPRLPRPRPRPEVLPRP
shrunken log2 fold change: 0.149

RRIRLRPPRLPRPRPRPQEHPRP
shrunken log2 fold change: -0.167

RRIRHRPPRLPRPRPRPEFIPRP
shrunken log2 fold change: -0.0433

RRIRPRPPRLPRPRPRPPILPRP
shrunken log2 fold change: -0.000706

RRIRIRPPRLPRPRPRPPMNPRP
shrunken log2 fold change: -0.368

RRIRHRPPRLPRPRPRPSWAPRP
shrunken log2 fold change: 0.19

RRIRIRPPRLPRPRPRPELCPRP
shrunken log2 fold change: 0.0211

RRIRCRPPRLPRPRPRPITKPRP
shrunken log2 fold change: -0.297

RRIRNRPPRLPRPRPRPIPDPRP
shrunken log2 fold change: -0.0956

RRIRGRPPRLPRPRPRPFWNPRP
shrunken log2 fold change: 0.087

RRIRSRPPRLPRPRPRPKRGPRP
shrunken log2 fold change: 0.0665

RRIRFRPPRLPRPRPRPGQLPRP
shrunken log2 fold change: -0.0429

RRIRVRPPRLPRPRPRPDDWPRP
shrunken log2 fold change: -0.198

RRIRPRPPRLPRPRPRPPTCPRP
shrunken log2 fold change: 0.051

RRIRWRPPRLPRPRPRPYRLPRP
shrunken log2 fold change: 0.00724

RRIRKRPPRLPRPRPRPPQCPRP
shrunken log2 fold change: 0.26

RRIRGRPPRLPRPRPRPMPVPRP
shrunken log2 fold change: 0.447

RRIRNRPPRLPRPRPRPSMTPRP
shrunken log2 fold change: 0.0898

RRIRWRPPRLPRPRPRPYARPRP
shrunken log2 fold change: 0.101

RRIRVRPPRLPRPRPRPSCKPRP
shrunken log2 fold change: -0.207

RRIRVRPPRLPRPRPRPLRGPRP
shrunken log2 fold change: 0.764

RRIRARPPRLPRPRPRPNKNPRP
shrunken log2 fold change: 0.0222

RRIRWRPPRLPRPRPRPATWPRP
shrunken log2 fold change: 0.152

RRIRFRPPRLPRPRPRPSMPPRP
shrunken log2 fold change: -0.331

RRIRMRPPRLPRPRPRPYKMPRP
shrunken log2 fold change: -0.277

RRIRSRPPRLPRPRPRPWLQPRP
shrunken log2 fold change: -0.0695

RRIRWRPPRLPRPRPRPQYKPRP
shrunken log2 fold change: -0.696

RRIRKRPPRLPRPRPRPTFHPRP
shrunken log2 fold change: 0.136

RRIRGRPPRLPRPRPRPEPAPRP
shrunken log2 fold change: 1.69

RRIRCRPPRLPRPRPRPERYPRP
shrunken log2 fold change: -0.153

RRIRCRPPRLPRPRPRPQARPRP
shrunken log2 fold change: -0.421

RRIRRRPPRLPRPRPRPWDFPRP
shrunken log2 fold change: 0.0406

RRIRYRPPRLPRPRPRPIHLPRP
shrunken log2 fold change: -1.26

RRIRPRPPRLPRPRPRPRACPRP
shrunken log2 fold change: 0.456

RRIRWRPPRLPRPRPRPVHLPRP
shrunken log2 fold change: -0.00868

RRIRKRPPRLPRPRPRPMSCPRP
shrunken log2 fold change: 0.0384

RRIRSRPPRLPRPRPRPDTHPRP
shrunken log2 fold change: -0.448

RRIRPRPPRLPRPRPRPSEKPRP
shrunken log2 fold change: -0.0945

RRIRDRPPRLPRPRPRPRCVPRP
shrunken log2 fold change: 0.117

RRIRMRPPRLPRPRPRPLDRPRP
shrunken log2 fold change: 0.816

RRIRIRPPRLPRPRPRPFEYPRP
shrunken log2 fold change: -0.709

RRIRSRPPRLPRPRPRPHPFPRP
shrunken log2 fold change: -0.25

RRIRERPPRLPRPRPRPKHAPRP
shrunken log2 fold change: -0.0907

RRIRGRPPRLPRPRPRPAYVPRP
shrunken log2 fold change: -0.0723

RRIRDRPPRLPRPRPRPVHEPRP
shrunken log2 fold change: -0.0506

RRIRSRPPRLPRPRPRPDGPPRP
shrunken log2 fold change: 0.0211

RRIRGRPPRLPRPRPRPEAEPRP
shrunken log2 fold change: 2.74

RRIRGRPPRLPRPRPRPCTQPRP
shrunken log2 fold change: 0.196

RRIRIRPPRLPRPRPRPNGLPRP
shrunken log2 fold change: 0.0383

RRIRPRPPRLPRPRPRPKLNPRP
shrunken log2 fold change: 0.0891

RRIRLRPPRLPRPRPRPAYGPRP
shrunken log2 fold change: -0.0437

RRIRTRPPRLPRPRPRPFWHPRP
shrunken log2 fold change: 0.23

RRIRWRPPRLPRPRPRPVIVPRP
shrunken log2 fold change: -0.0785

RRIRQRPPRLPRPRPRPGNTPRP
shrunken log2 fold change: 0.0649

RRIRRRPPRLPRPRPRPQYFPRP
shrunken log2 fold change: -0.0475

RRIRPRPPRLPRPRPRPLDSPRP
shrunken log2 fold change: -0.0664

RRIRMRPPRLPRPRPRPCDAPRP
shrunken log2 fold change: 0.261

RRIRDRPPRLPRPRPRPCYNPRP
shrunken log2 fold change: -0.271

RRIRSRPPRLPRPRPRPIKEPRP
shrunken log2 fold change: -0.0466

RRIRKRPPRLPRPRPRPVPFPRP
shrunken log2 fold change: -0.101

RRIRERPPRLPRPRPRPIFNPRP
shrunken log2 fold change: -0.663

RRIRLRPPRLPRPRPRPFRIPRP
shrunken log2 fold change: 0.0742

RRIRCRPPRLPRPRPRPPRVPRP
shrunken log2 fold change: 0.935

RRIRPRPPRLPRPRPRPMYRPRP
shrunken log2 fold change: -0.752

RRIRIRPPRLPRPRPRPNPKPRP
shrunken log2 fold change: 0.0309

RRIRIRPPRLPRPRPRPRHVPRP
shrunken log2 fold change: -0.163

RRIRLRPPRLPRPRPRPAPIPRP
shrunken log2 fold change: 0.0892

RRIRCRPPRLPRPRPRPAKCPRP
shrunken log2 fold change: -0.101

RRIRYRPPRLPRPRPRPNLWPRP
shrunken log2 fold change: 0.00221

RRIRTRPPRLPRPRPRPPYHPRP
shrunken log2 fold change: -0.541

RRIRARPPRLPRPRPRPKGYPRP
shrunken log2 fold change: 0.049

RRIRSRPPRLPRPRPRPDHQPRP
shrunken log2 fold change: -0.263

RRIRTRPPRLPRPRPRPCFEPRP
shrunken log2 fold change: -0.0858

RRIRWRPPRLPRPRPRPVPTPRP
shrunken log2 fold change: 0.544

RRIRRRPPRLPRPRPRPRIPPRP
shrunken log2 fold change: 0.209

RRIRWRPPRLPRPRPRPWSHPRP
shrunken log2 fold change: -0.00467

RRIRWRPPRLPRPRPRPVFGPRP
shrunken log2 fold change: 0.159

RRIRERPPRLPRPRPRPQHMPRP
shrunken log2 fold change: -0.735

RRIRRRPPRLPRPRPRPCANPRP
shrunken log2 fold change: -0.0911

RRIRKRPPRLPRPRPRPATEPRP
shrunken log2 fold change: 0.486

RRIRDRPPRLPRPRPRPSMRPRP
shrunken log2 fold change: 0.334
